Molecular target: PCM1 (endogenous) [human (endogenous in HEK293A)]
Assay: GFP-TRAP pull-down and immunoblot, quantified
Conditions: read off a plot, scale: relative protein level normalized to ponceau

response (EBSS (ES) for 2 hr): 0.85 | response (EBSS + BAFA (EB) for 2 hr): 1.2 | response (full medium (FM)): 1
Substance: GFP-GABARAP mutant G116A [human] / PCM1 (endogenous) [human (endogenous in HEK293A)] chain 1 G116A

Reference: article PMC5526835
